Laboratory results: paper PMC7862258

B1: fibulin-3 (F3): N249Q (protein)
parent chain: MLKALFLTMLTLALVKSQDTEETITYTQCTDGYEWDPVRQQCKDIDECDIVPDACKGGMKCVNHYGGYLCLPKTAQIIVNNEQPQQETQPAEGTSGATTGVVAASSMATSGVLPGGGFVASAAAVAGPEMQTGRNNFVIRRNPADPQRIPSNPSHRIQCAAGYEQSEHNVCQDIDECTAGTHNCRADQVCINLRGSFACQCPPGYQKRGEQCVDIDECTIPPYCHQRCVNTPGSFYCQCSPGFQLAANNYTCVDINECDASNQCAQQCYNILGSFICQCNQGYELSSDRLNCEDIDECRTSSYLCQYQCVNEPGKFSCMCPQGYQVVRSRTCQDINECETTNECREDEMCWNYHGGFRCYPRNPCQDPYILTPENRCVCPVSNAMCRELPQSIVYKYMSIRSDRSVPSDIFQIQATTIYANTINTFRIKSGNENGEFYLRQTSPVSAMLVLVKSLSGPREHIVDLEMLTVSSIGTFRTSSVLRLTIIVGPFSF
B2: fibulin-3 (F3): R140W/N249Q (protein)
parent chain: MLKALFLTMLTLALVKSQDTEETITYTQCTDGYEWDPVRQQCKDIDECDIVPDACKGGMKCVNHYGGYLCLPKTAQIIVNNEQPQQETQPAEGTSGATTGVVAASSMATSGVLPGGGFVASAAAVAGPEMQTGRNNFVIRRNPADPQRIPSNPSHRIQCAAGYEQSEHNVCQDIDECTAGTHNCRADQVCINLRGSFACQCPPGYQKRGEQCVDIDECTIPPYCHQRCVNTPGSFYCQCSPGFQLAANNYTCVDINECDASNQCAQQCYNILGSFICQCNQGYELSSDRLNCEDIDECRTSSYLCQYQCVNEPGKFSCMCPQGYQVVRSRTCQDINECETTNECREDEMCWNYHGGFRCYPRNPCQDPYILTPENRCVCPVSNAMCRELPQSIVYKYMSIRSDRSVPSDIFQIQATTIYANTINTFRIKSGNENGEFYLRQTSPVSAMLVLVKSLSGPREHIVDLEMLTVSSIGTFRTSSVLRLTIIVGPFSF
B3: fibulin-3 (F3): D49A/N249Q (protein)
parent chain: MLKALFLTMLTLALVKSQDTEETITYTQCTDGYEWDPVRQQCKDIDECDIVPDACKGGMKCVNHYGGYLCLPKTAQIIVNNEQPQQETQPAEGTSGATTGVVAASSMATSGVLPGGGFVASAAAVAGPEMQTGRNNFVIRRNPADPQRIPSNPSHRIQCAAGYEQSEHNVCQDIDECTAGTHNCRADQVCINLRGSFACQCPPGYQKRGEQCVDIDECTIPPYCHQRCVNTPGSFYCQCSPGFQLAANNYTCVDINECDASNQCAQQCYNILGSFICQCNQGYELSSDRLNCEDIDECRTSSYLCQYQCVNEPGKFSCMCPQGYQVVRSRTCQDINECETTNECREDEMCWNYHGGFRCYPRNPCQDPYILTPENRCVCPVSNAMCRELPQSIVYKYMSIRSDRSVPSDIFQIQATTIYANTINTFRIKSGNENGEFYLRQTSPVSAMLVLVKSLSGPREHIVDLEMLTVSSIGTFRTSSVLRLTIIVGPFSF
B4: fibulin-3 (F3): N249Q/R387Q (protein)
parent chain: MLKALFLTMLTLALVKSQDTEETITYTQCTDGYEWDPVRQQCKDIDECDIVPDACKGGMKCVNHYGGYLCLPKTAQIIVNNEQPQQETQPAEGTSGATTGVVAASSMATSGVLPGGGFVASAAAVAGPEMQTGRNNFVIRRNPADPQRIPSNPSHRIQCAAGYEQSEHNVCQDIDECTAGTHNCRADQVCINLRGSFACQCPPGYQKRGEQCVDIDECTIPPYCHQRCVNTPGSFYCQCSPGFQLAANNYTCVDINECDASNQCAQQCYNILGSFICQCNQGYELSSDRLNCEDIDECRTSSYLCQYQCVNEPGKFSCMCPQGYQVVRSRTCQDINECETTNECREDEMCWNYHGGFRCYPRNPCQDPYILTPENRCVCPVSNAMCRELPQSIVYKYMSIRSDRSVPSDIFQIQATTIYANTINTFRIKSGNENGEFYLRQTSPVSAMLVLVKSLSGPREHIVDLEMLTVSSIGTFRTSSVLRLTIIVGPFSF
B5: fibulin-3 (F3): I220F/N249Q (protein)
parent chain: MLKALFLTMLTLALVKSQDTEETITYTQCTDGYEWDPVRQQCKDIDECDIVPDACKGGMKCVNHYGGYLCLPKTAQIIVNNEQPQQETQPAEGTSGATTGVVAASSMATSGVLPGGGFVASAAAVAGPEMQTGRNNFVIRRNPADPQRIPSNPSHRIQCAAGYEQSEHNVCQDIDECTAGTHNCRADQVCINLRGSFACQCPPGYQKRGEQCVDIDECTIPPYCHQRCVNTPGSFYCQCSPGFQLAANNYTCVDINECDASNQCAQQCYNILGSFICQCNQGYELSSDRLNCEDIDECRTSSYLCQYQCVNEPGKFSCMCPQGYQVVRSRTCQDINECETTNECREDEMCWNYHGGFRCYPRNPCQDPYILTPENRCVCPVSNAMCRELPQSIVYKYMSIRSDRSVPSDIFQIQATTIYANTINTFRIKSGNENGEFYLRQTSPVSAMLVLVKSLSGPREHIVDLEMLTVSSIGTFRTSSVLRLTIIVGPFSF

Columns and labels:
[1] = anti-FLAG western blot of conditioned media, HEK293A; details: glycan lost; for expression_or_secretion, other: relative secretion, % of N249Q F3: control: same variant with N249 glycan (normalised to WT F3), arms normalised to N249Q F3
[2] = anti-FLAG western blot of cell lysate (intracellular level), HEK293A; details: glycan lost; control: WT F3

Protein | expression_or_secretion, percent_of_wt ([1]; control: WT F3) | expression_or_secretion, percent_of_wt [2] | expression_or_secretion, other: relative secretion, % of N249Q F3 [1]
B1 | no change | no change | 
B2 |  |  | no change
B3 |  |  | no change
B4 |  |  | no change
B5 |  |  | no change
